Data taken from US20210253679A1 (NATIONAL RESEARCH COUNCIL OF CANADA, published 2021).

B1: Rh34-H4 (VHH)
VHH: QVQLVESGGGLVQPGGSLRLSCAASGRTISLYAVGWFRRAPGKEREFVAAISWTDSSTYYADSVKGRFTISRDNSKNTLYLQMNSLRAEDTAVYYCAADVSIRGLQKYEYDYWGQGTLVTVSS
B2: Rh34-H1 (VHH)
VHH: EVQLVESGGGLVQPGGSLRLSCAASGRTISLYAVGWFRQAPGKGLEFVSAISWTDSSTYYADSVKGRFTISRDNSKNTLYLQMNSLRAEDTAVYYCAADVSIRGLQKYEYDYWGQGTLVTVSS
B3: Rh34-H3 (VHH)
VHH: QVQLVESGGGLVQPGGSLRLSCAASGRTISLYAVGWFRQAPGKEREFVAAISWTDSSTYYADSVKGRFTISRDNSKNTLYLQMNSLRAEDTAVYYCAADVSIRGLQKYEYDYWGQGTLVTVSS
B4: Rh46-H2 (VHH)
VHH: EVQLVESGGGLVQPGGSLRLSCAASTRTFSSYIMGWFRQAPGKERELVSAISWSGRMTHYADSVKGRFTISRDNSKNTLYLQMNSLRAEDTAVYYCAADRTTAWGAPRSQYDSWGQGTLVTVS
B5: H18-H4 (VHH)
VHH: QVQLVESGGGLVQPGGSLRLSCAASGSIESINRMAWYRQAPGQQREFVARISKGGSTNYPDSVKGRFTISRDNSKNTLYLQMNSLRAEDTAVYYCAAGPVWEQFWGQGTLVTVSS
B6: H18-H5 (VHH)
VHH: QVQLVESGGGLVQPGGSLRLSCAASGSIESINRMAWYRQAPGQQREFVARISKGGSTNYPDSVKGRFTISRDNAKNTVYLQMNSLRAEDTAVYYCAAGPVWEQFWGQGTLVTVSS
B7: H18-H1 (VHH)
VHH: EVQLVESGGGLVQPGGSLRLSCAASGSIESINRMAWYRQAPGKGLEFVSRISKGGSTNYPDSVKGRFTISRDNSKNTLYLQMNSLRAEDTAVYYCAAGPVWEQFWGQGTLVTVSS
B8: H18-H3 (VHH)
VHH: QVQLVESGGGLVQPGGSLRLSCAASGSIESINRMAWYRQAPGKQREFVARISKGGSTNYPDSVKGRFTISRDNSKNTLYLQMNSLRAEDTAVYYCAAGPVWEQFWGQGTLVTVSS
B9: M75-H4 (VHH)
VHH: QVQLVESGGGLVQPGGSLRLSCAASGRTFDNYVMAWFRQAPGKEREFVASISGSGSITNYANSVKDRFTISRDSSKNALYLQMNSLRAEDTAVYYCAAGSRRTYYREPKFYPSWGQGTLVTVSS
B10: M75-H2 (VHH)
VHH: EVQLVESGGGLVQPGGSLRLSCAASGRTFDNYVMAWFRQAPGKEREFVSSISGSGSITNYANSVKDRFTISRDNSKNTLYLQMNSLRAEDTAVYYCAAGSRRTYYREPKFYPSWGQGTLVTVSS
B11: M75-H5 (VHH)
VHH: QVQLVESGGGLVQPGGSLRLSCAASGRTFDNYVMAWFRQAPGKEREFVASISGSGSITNYANSVKDRFTISRDSAKNAIYLQMNSLRAEDTAVYYCAAGSRRTYYREPKFYPSWGQGTLVTVSS
B12: M75-H3 (VHH)
VHH: QVQLVESGGGLVQPGGSLRLSCAASGRTFDNYVMAWFRQAPGKEREFVASISGSGSITNYANSVKDRFTISRDNSKNTLYLQMNSLRAEDTAVYYCAAGSRRTYYREPKFYPSWGQGTLVTVSS
B13: M75-H1 (VHH)
VHH: EVQLVESGGGLVQPGGSLRLSCAASGRTFDNYVMAWFRQAPGKGLEFVSSISGSGSITNYANSVKDRFTISRDNSKNTLYLQMNSLRAEDTAVYYCAAGSRRTYYREPKFYPSWGQGTLVTVSS
B14: Rh46-H4 (VHH)
VHH: QVQLVESGGGLVQPGGSLRLSCAASTRTFSSYIMGWFRQAPGKERELVAAISWSGRMTHYADSVKGRFTISRDNSKNTLYLQMNSLRAEDTAIYSCAADRTTAWGAPRSQYDSWGQGTLVTVSS
B15: Rh46-H5 (VHH)
VHH: QVQLVESGGGLVQPGGSLRLSCAASTRTFSSYIMGWFRQAPGKERELVAAISWSGRMTHYADSVKGRFTISRDNAKNTVYLQMNSLRAEDTAIYSCAADRTTAWGAPRSQYDSWGQGTLVTVSS
B16: Rh46-H1 (VHH)
VHH: EVQLVESGGGLVQPGGSLRLSCAASTRTFSSYIMGWFRQAPGKGLELVSAISWSGRMTHYADSVKGRFTISRDNSKNTLYLQMNSLRAEDTAVYYCAADRTTAWGAPRSQYDSWGQGTLVTVSS
B17: Rh46-H3 (VHH)
VHH: QVQLVESGGGLVQPGGSLRLSCAASTRTFSSYIMGWFRQAPGKERELVAAISWSGRMTHYADSVKGRFTISRDNSKNTLYLQMNSLRAEDTAVYYCAADRTTAWGAPRSQYDSWGQGTLVTVSS
B18: R11-H1 (VHH)
VHH: EVQLVESGGGLVQPGGSLRLSCAASGFLLRSNTMGWYRQAPGKGLELVSFIRPSGLTNYNDAVQGRFTISRDNSKNTLYLQMNSLRAEDTAVYYCATRPPFQRDSWGQGTLVTVSS
B19: R11-H5 (VHH)
VHH: QVQLVESGGGLVQPGGSLRLSCAGPGFLLRSNTMGWYRQAPGKERELVAFIRPSGLTNYNDAVQGRFTISRDNSKNTLYLQMNSLRAEDTAVYYCHTRPPFQRDSWGQGTLVTVSS
B20: R11-H6 (VHH)
VHH: QVQLVESGGGLVQPGGSLRLSCAGPGFLLRSNTMGWYRQAPGKERELVAFIRPSGLTNYNDAVQGRFTISRDNAKNTVYLQMNSLRAEDTAVYYCHTRPPFQRDSWGQGTLVTVSS
B21: R11-H2 (VHH)
VHH: EVQLVESGGGLVQPGGSLRLSCAASGFLLRSNTMGWYRQAPGKGLELVSFIRPSGLTNYNDAVQGRFTISRDNSKNTLYLQMNSLRAEDTAVYYCHTRPPFQRDSWGQGTLVTVSS
B22: Rh34-H2 (VHH)
VHH: EVQLVESGGGLVQPGGSLRLSCAASGRTISLYAVGWFRQAPGKEREFVSAISWTDSSTYYADSVKGRFTISRDNSKNTLYLQMNSLRAEDTAVYYCAADVSIRGLQKYEYDYWGQGTLVTVS
B23: Rh34-H5 (VHH)
VHH: QVQLVESGGGLVQPGGSLRLSCAASGRTISLYAVGWFRRAPGKEREFVAAISWTDSSTYYADSVKGRFTISRDNAKNTVYLQMNSLRAEDTAVYYCAADVSIRGLQKYEYDYWGQGTLVTVS
B24: R28-H2 (VHH)
VHH: EVQLVESGGGLVQPGGSLRLSCAASGRTFIAYAMGWFRQAPGKEREFVSAITNFAGGTTYYADSVKGRFTISRDNSKNTLYLQMNSLRAEDTAVYYCAADRSAQTMRQVRPVLPYWGQGTLVTVSS

How the values were obtained:
rat serum albumin [1] = target: T1, rat serum albumin (rat, UniProt P02770 25-608); test: SPR, single cycle kinetics, pH 7.4
T1 construct: also called RSA

rhesus serum albumin [2] = target: T2, rhesus serum albumin (rhesus, UniProt Q28522 17-600); test: SPR, single cycle kinetics, pH 7.4
T2 construct: also called RhSA

human serum albumin [3] = target: T3, human serum albumin (human, UniProt P02768 25-609); test: SPR, single cycle kinetics, pH 7.4
T3 construct: also called HSA

rhesus serum albumin [4] = target: T2, rhesus serum albumin; test: SPR, single cycle kinetics, pH 5.5
human serum albumin [5] = target: T3, human serum albumin; test: SPR, single cycle kinetics, pH 5.5
rat serum albumin [6] = target: T1, rat serum albumin; test: SPR, single cycle kinetics, pH 5.5

Binder | binding result (rat serum albumin [1]) | Kd (rhesus serum albumin [2]) | Kd (human serum albumin [3]) | Kd (rhesus serum albumin [4]) | Kd (human serum albumin [5]) | Kd (rat serum albumin [1]) | binding result (rhesus serum albumin [2]) | Kd (rat serum albumin [6]) | binding result (human serum albumin [3])
B1 | no binding | 739 nM | 647 nM | 2250 nM | 974 nM | – | – | – | –
B2 | no binding | 1350 nM | 824 nM | 1920 nM | 1560 nM | – | – | – | –
B3 | no binding | 1260 nM | 1370 nM | 1810 nM | 2310 nM | – | – | – | –
B4 | no binding | 456 nM | 426 nM | 44.1 nM | 87.3 nM | – | – | – | –
B5 | no binding | 34.4 nM | 58.6 nM | 72.7 nM | 57.1 nM | – | – | – | –
B6 | no binding | 91.7 nM | 59.4 nM | 70.7 nM | 46.6 nM | – | – | – | –
B7 | no binding | 91.5 nM | 52.8 nM | 92.2 nM | 56.3 nM | – | – | – | –
B8 | no binding | 38.2 nM | 19.1 nM | 57.6 nM | 22.3 nM | – | – | – | –
B9 | – | 6.7 nM | 2.8 nM | – | – | 377 nM | – | – | –
B10 | – | 63.6 nM | 7.8 nM | – | – | 2490 nM | – | – | –
B11 | – | 4.6 nM | 2.1 nM | – | – | 62.4 nM | – | – | –
B12 | – | 17.7 nM | 4.8 nM | – | – | 1260 nM | – | – | –
B13 | – | 6.1 nM | 3.2 nM | – | – | 659 nM | – | – | –
B14 | no binding | 405 nM | 237 nM | 25.2 nM | 51.5 nM | – | – | – | –
B15 | no binding | 343 nM | 233 nM | 24.1 nM | 54.9 nM | – | – | – | –
B16 | no binding | 707 nM | 583 nM | 40.8 nM | 97.7 nM | – | – | – | –
B17 | no binding | 415 nM | 289 nM | 34 nM | 70.3 nM | – | – | – | –
B18 | no binding | – | – | – | – | – | no binding | – | –
B19 | – | 643 nM | 307 nM | 525 nM | 98.2 nM | 196 nM | – | 160 nM | –
B20 | – | 561 nM | 252 nM | 511 nM | 67.5 nM | 151 nM | – | 123 nM | –
B21 | no binding | – | – | – | – | – | no binding | – | no binding
B22 | no binding | 1470 nM | 1330 nM | 3080 nM | 2320 nM | – | – | – | –
B23 | no binding | 589 nM | 410 nM | 1420 nM | 524 nM | – | – | – | –
B24 | – | 2630 nM | 147 nM | 668 nM | 6.6 nM | 4.1 nM | – | 1 nM | –
